Measured values taken from the supplement of paper PMC10567573.

B1: LMNB1 (parent)
chain: LYKEELEQTYHAKLENARLSSEMN
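Further: lentivirally expressed fusions sorted by FACS into six bins by GFP to DsRed ratio, PSI derived from sequencing read proportions per bin multiplied by bin number.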

Variants of: B1
Assay: protein stability index of a GFP-peptide fusion (GPS, HEK-293T) (PSI 1-6); higher = more stable
Conditions: c terminus: a fixed tail appended
Work on LYKEELEQTYHAKLENARLSDEMN yielded a protein stability index of 3.48. Work on LYKEELEQTYHAKLENARLSLEMN yielded a protein stability index of 1.78. Work on LYKEELEQTYHAKLENARLSYEMN yielded a protein stability index of 2.1. LYKEELEQTYHAKLENARLSWEMN gave a protein stability index of 1.82. Work on LYKEELEQTYHAKLENARLSEEMN yielded a protein stability index of 3.18. Variant LYKEELEQTYHAKLENARLSFEMN has a protein stability index of 2.42. LYKEELEQTYHAKLENARLSGEMN gave a protein stability index of 2.51. For LYKEELEQTYHAKLENARLSREMN, the protein stability index was 2.25. Work on LYKEELEQTYHAKLENARLSHEMN yielded a protein stability index of 2.59. Work on LYKEELEQTYHAKLENARLSIEMN yielded a protein stability index of 2.35. Variant LYKEELEQTYHAKLENARLSPEMN has a protein stability index of 2.37. LYKEELEQTYHAKLENARLSKEMN gave a protein stability index of 2.91. Work on LYKEELEQTYHAKLENARLSQEMN yielded a protein stability index of 2.55. For LYKEELEQTYHAKLENARLSAEMN, the protein stability index was 2.68. Work on LYKEELEQTYHAKLENARLSNEMN yielded a protein stability index of 2.55. LYKEELEQTYHAKLENARLSTEMN showed a protein stability index of 2.83. LYKEELEQTYHAKLENARLSCEMN gave a protein stability index of 2.02. For LYKEELEQTYHAKLENARLSVEMN, the protein stability index was 2.26. In the case of LYKEELEQTYHAKLENARLSMEMN, the protein stability index is reported as 2.72. With LYKEELEQTYHAKLENARLHSEMN the protein stability index was 2.73. LYKEELEQTYHAKLENARLDSEMN showed a protein stability index of 2.71. For LYKEELEQTYHAKLENARLMSEMN, the protein stability index was 2.58. Variant LYKEELEQTYHAKLENARLPSEMN has a protein stability index of 3.18. In the case of LYKEELEQTYHAKLENARLKSEMN, the protein stability index is reported as 3.6. LYKEELEQTYHAKLENARLWSEMN showed a protein stability index of 1.82. For LYKEELEQTYHAKLENARLISEMN, the protein stability index was 2.81. Variant LYKEELEQTYHAKLENARLRSEMN has a protein stability index of 3.26. LYKEELEQTYHAKLENARLFSEMN gave a protein stability index of 2.29. For LYKEELEQTYHAKLENARLESEMN, the protein stability index was 2.04. With LYKEELEQTYHAKLENARLVSEMN the protein stability index was 2.88. With LYKEELEQTYHAKLENARLGSEMN the protein stability index was 2.7. Variant LYKEELEQTYHAKLENARLASEMN has a protein stability index of 2.63. With LYKEELEQTYHAKLENARLTSEMN the protein stability index was 2.74. LYKEELEQTYHAKLENARLQSEMN showed a protein stability index of 2.91. For LYKEELEQTYHAKLENARLYSEMN, the protein stability index was 1.93. In the case of LYKEELEQTYHAKLENARLCSEMN, the protein stability index is reported as 2.21. In the case of LYKEELEQTYHAKLENARLLSEMN, the protein stability index is reported as 3.38. For LYKEELEQTYHAKLENARLNSEMN, the protein stability index was 3.07. In the case of LYKEELEQTYHAKLEKARLSSEMN, the protein stability index is reported as 2.98. LYKEELEQTYHAKLETARLSSEMN showed a protein stability index of 2.96. In the case of LYKEELEQTYHAKLEHARLSSEMN, the protein stability index is reported as 3.14. LYKEELEQTYHAKLEDARLSSEMN gave a protein stability index of 2.92. LYKEELEQTYHAKLESARLSSEMN gave a protein stability index of 2.42. With LYKEELEQTYHAKLEMARLSSEMN the protein stability index was 3.03. For LYKEELEQTYHAKLEYARLSSEMN, the protein stability index was 1.83. In the case of LYKEELEQTYHAKLEAARLSSEMN, the protein stability index is reported as 2.98. LYKEELEQTYHAKLEIARLSSEMN gave a protein stability index of 2.35. For LYKEELEQTYHAKLEGARLSSEMN, the protein stability index was 2.27. Work on LYKEELEQTYHAKLERARLSSEMN yielded a protein stability index of 2.92. For LYKEELEQTYHAKLEQARLSSEMN, the protein stability index was 3.32. LYKEELEQTYHAKLELARLSSEMN showed a protein stability index of 3.23. Work on LYKEELEQTYHAKLEFARLSSEMN yielded a protein stability index of 1.89. For LYKEELEQTYHAKLECARLSSEMN, the protein stability index was 2.48. With LYKEELEQTYHAKLEEARLSSEMN the protein stability index was 4. In the case of LYKEELEQTYHAKLEVARLSSEMN, the protein stability index is reported as 2.3. LYKEELEQTYHAKLEPARLSSEMN showed a protein stability index of 3.33. With LYKEELEQTYHAKRENARLSSEMN the protein stability index was 4.78. In the case of LYKEELEQTYHAKQENARLSSEMN, the protein stability index is reported as 4.56. LYKEELEQTYHAKYENARLSSEMN gave a protein stability index of 3.51. With LYKEELEQTYHAKVENARLSSEMN the protein stability index was 3.49. With LYKEELEQTYHAKWENARLSSEMN the protein stability index was 3.11. LYKEELEQTYHAKTENARLSSEMN gave a protein stability index of 4.34. Variant LYKEELEQTYHAKSENARLSSEMN has a protein stability index of 4.66. For LYKEELEQTYHAKLENWRLSSEMN, the protein stability index was 1.78. For LYKEELEQTYHAKLENNRLSSEMN, the protein stability index was 3.86. Variant LYKEELEQTYHAKLENLRLSSEMN has a protein stability index of 2.44. In the case of LYKEELEQTYHAKLENTRLSSEMN, the protein stability index is reported as 2.61. LYKEELEQTYHAKLENGRLSSEMN showed a protein stability index of 4.01. In the case of LYKEELEQTYHAKLENKRLSSEMN, the protein stability index is reported as 3.9. For LYKEELEQTYHAKLENHRLSSEMN, the protein stability index was 3.52. LYKEELEQTYHAKLENERLSSEMN showed a protein stability index of 4.26. In the case of LYKEELEQTYHAKLENSRLSSEMN, the protein stability index is reported as 3.61. LYKEELEQTYHAKLENPRLSSEMN showed a protein stability index of 2.66. LYKEELEQTYHAKLENVRLSSEMN gave a protein stability index of 1.41. In the case of LYKEELEQTYHAKLENCRLSSEMN, the protein stability index is reported as 1.82. Work on LYKEELEQTYHAKLENQRLSSEMN yielded a protein stability index of 3.72. LYKEELEQTYHAKLENIRLSSEMN showed a protein stability index of 1.97. LYKEELEQTYHAKLENDRLSSEMN gave a protein stability index of 4.14. With LYKEELEQTYHAKLENMRLSSEMN the protein stability index was 1.98. Variant LYKEELEQTYHAKLENFRLSSEMN has a protein stability index of 1.82. In the case of LYKEELEQTYHAKLENYRLSSEMN, the protein stability index is reported as 2.2. In the case of LYKEELEQTYHAKLENRRLSSEMN, the protein stability index is reported as 3.71. Work on LYKEELEQTYHAKLENARLSSETN yielded a protein stability index of 2.52. In the case of LYKEELEQTYHAKLENARLSSEEN, the protein stability index is reported as 2.89. In the case of LYKEELEQTYHAKLENARLSSEVN, the protein stability index is reported as 2.46. LYKEELEQTYHAKLENARLSSEDN showed a protein stability index of 2.82. For LYKEELEQTYHAKLENARLSSEKN, the protein stability index was 3.28. Work on LYKEELEQTYHAKLENARLSSECN yielded a protein stability index of 2.76. With LYKEELEQTYHAKLENARLSSEWN the protein stability index was 2.58. LYKEELEQTYHAKLENARLSSEPN showed a protein stability index of 2.67. Work on LYKEELEQTYHAKLENARLSSERN yielded a protein stability index of 3.21. LYKEELEQTYHAKLENARLSSELN showed a protein stability index of 2.19. For LYKEELEQTYHAKLENARLSSEQN, the protein stability index was 3.04. Variant LYKEELEQTYHAKLENARLSSEYN has a protein stability index of 1.6.
